Experimental data taken from article PMC9352680, “A comprehensive thermodynamic model for RNA binding by the Saccharomyces cerevisiae Pumilio protein PUF4”.

T1: PUF4 RNA-binding domain (Saccharomyces cerevisiae, UniProt P25339 537-888)
T1 sequence: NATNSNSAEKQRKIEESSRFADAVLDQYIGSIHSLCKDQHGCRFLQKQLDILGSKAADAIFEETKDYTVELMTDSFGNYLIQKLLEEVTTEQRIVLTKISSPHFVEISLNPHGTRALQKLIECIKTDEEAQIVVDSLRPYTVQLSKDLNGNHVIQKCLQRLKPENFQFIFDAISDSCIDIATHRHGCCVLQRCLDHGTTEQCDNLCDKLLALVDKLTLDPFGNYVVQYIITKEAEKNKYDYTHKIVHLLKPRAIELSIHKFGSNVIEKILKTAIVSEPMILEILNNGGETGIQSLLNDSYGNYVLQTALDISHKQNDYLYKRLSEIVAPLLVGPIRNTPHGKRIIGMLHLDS


Molecular target: T1, PUF4 RNA-binding domain
Assay: Mg; RNA-MaP; 20 mM Na-HEPES pH 7.4, 30 mM KOAc, 0.75 mM MgCl2, 0.1% Tween-20, 5% glycerol, 0.1 mg/mL BSA, 2 mM DTT; 25 C; 0.0125-409.6 nM protein
Conditions: tags: N-His6-TEV cleaved; C-SNAP kept, Cy3B-labelled; label: tethered on chip by stalled RNA polymerase

Binder | Kd [nM]
Ic_S2_P4E.1_K4.1_C4.1_H4.1_A4.1_[A6C]_[T7C]_F4.1_[T8A]_T4.1 (ssRNA) RNA: UUUGAUUAAUAUGAUAUCGUUCUUUCUUGUAUCCAAUUCUUUCUCGAUAUCAUAUUAAUCUUU | 369
UCUCUUUGUAUAUCGUCUCUU (ssRNA) [Ib_S1_P4E.1_K4.1_C4.1_H4.1_A4.1_F4.1_[T8C]_[A9G]_T4.1] | 26.1
Ic_S2_P4E.1_K4.1_C4.1_H4.1_A4.1_[A6C]_[T7C]_F4.1_[A9C]_T4.1 (ssRNA) RNA: UUUGAUUAAUAUGAUAUCGUUCUUUCUUGUAUCCUCUUCUUUCUCGAUAUCAUAUUAAUCUUU | 27.5
Ic_S2_P4E.1_K4.1_C4.1_H4.1_A4.1_[A6C]_[T7A]_F4.1_[T8C]_[A9G]_T4.1 (ssRNA) RNA: UUUGAUUAAUAUGAUAUCGUUCUUUCUUGUAUCACGUUCUUUCUCGAUAUCAUAUUAAUCUUU | 228
Ic_S2_P4E.1_K4.1_C4.1_H4.1_A4.1_[A6C]_[T7A]_F4.1_[T8C]_[A9T]_T4.1 (ssRNA) RNA: UUUGAUUAAUAUGAUAUCGUUCUUUCUUGUAUCACUUUCUUUCUCGAUAUCAUAUUAAUCUUU | 76.1
Ic_S2_P4E.1_K4.1_C4.1_H4.1_A4.1_[A6C]_[T7A]_F4.1_[T8C]_T4.1 (ssRNA) RNA: UUUGAUUAAUAUGAUAUCGUUCUUUCUUGUAUCACAUUCUUUCUCGAUAUCAUAUUAAUCUUU | 347
Ic_S2_P4E.1_K4.1_C4.1_H4.1_A4.1_[A6C]_[T7A]_F4.1_[T8A]_[A9C]_T4.1 (ssRNA) RNA: UUUGAUUAAUAUGAUAUCGUUCUUUCUUGUAUCAACUUCUUUCUCGAUAUCAUAUUAAUCUUU | 309
Ic_S2_P4E.1_K4.1_C4.1_H4.1_A4.1_[A6C]_[T7A]_F4.1_[A9G]_T4.1 (ssRNA) RNA: UUUGAUUAAUAUGAUAUCGUUCUUUCUUGUAUCAUGUUCUUUCUCGAUAUCAUAUUAAUCUUU | 4.75
Ic_S2_P4E.1_K4.1_C4.1_H4.1_A4.1_[A6C]_[T7A]_F4.1_[A9T]_T4.1 (ssRNA) RNA: UUUGAUUAAUAUGAUAUCGUUCUUUCUUGUAUCAUUUUCUUUCUCGAUAUCAUAUUAAUCUUU | 3.46
Ic_S2_P4E.1_K4.1_C4.1_H4.1_A4.1_[A6C]_F4.1_[T8G]_[A9T]_T4.1 (ssRNA) RNA: UUUGAUUAAUAUGAUAUCGUUCUUUCUUGUAUCUGUUUCUUUCUCGAUAUCAUAUUAAUCUUU | 17.9
Ic_S2_P4E.1_K4.1_C4.1_H4.1_A4.1_[A6C]_F4.1_[T8C]_[A9G]_T4.1 (ssRNA) RNA: UUUGAUUAAUAUGAUAUCGUUCUUUCUUGUAUCUCGUUCUUUCUCGAUAUCAUAUUAAUCUUU | 23.6
Ic_S2_P4E.1_K4.1_C4.1_H4.1_A4.1_[A6C]_F4.1_[T8C]_[A9C]_T4.1 (ssRNA) RNA: UUUGAUUAAUAUGAUAUCGUUCUUUCUUGUAUCUCCUUCUUUCUCGAUAUCAUAUUAAUCUUU | 28.4
UCUCUUUGUAUAUCCUCUCUU (ssRNA) [Ib_S1_P4E.1_K4.1_C4.1_H4.1_A4.1_F4.1_[T8C]_[A9C]_T4.1] | 18.9
Ic_S2_P4E.1_K4.1_C4.1_H4.1_A4.1_[A6C]_F4.1_[T8C]_[A9T]_T4.1 (ssRNA) RNA: UUUGAUUAAUAUGAUAUCGUUCUUUCUUGUAUCUCUUUCUUUCUCGAUAUCAUAUUAAUCUUU | 17.7
Ic_S2_P4E.1_K4.1_C4.1_H4.1_A4.1_[A6C]_F4.1_[T8A]_[A9G]_T4.1 (ssRNA) RNA: UUUGAUUAAUAUGAUAUCGUUCUUUCUUGUAUCUAGUUCUUUCUCGAUAUCAUAUUAAUCUUU | 32.9
Ic_S2_P4E.1_K4.1_C4.1_H4.1_A4.1_[A6C]_F4.1_[T8A]_[A9T]_T4.1 (ssRNA) RNA: UUUGAUUAAUAUGAUAUCGUUCUUUCUUGUAUCUAUUUCUUUCUCGAUAUCAUAUUAAUCUUU | 7.99
Ic_S2_P4E.1_K4.1_C4.1_H4.1_A4.1_[A6T]_[T7G]_F4.1_[T8G]_[A9C]_T4.1 (ssRNA) RNA: UUUGAUUAAUAUGAUAUCGUUCUUUCUUGUAUUGGCUUCUUUCUCGAUAUCAUAUUAAUCUUU | > 2300
Ic_S2_P4E.1_K4.1_C4.1_H4.1_A4.1_[A6T]_[T7G]_F4.1_[T8G]_[A9T]_T4.1 (ssRNA) RNA: UUUGAUUAAUAUGAUAUCGUUCUUUCUUGUAUUGGUUUCUUUCUCGAUAUCAUAUUAAUCUUU | 1200
Ic_S2_P4E.1_K4.1_C4.1_H4.1_A4.1_[A6T]_[T7G]_F4.1_[T8C]_[A9C]_T4.1 (ssRNA) RNA: UUUGAUUAAUAUGAUAUCGUUCUUUCUUGUAUUGCCUUCUUUCUCGAUAUCAUAUUAAUCUUU | 645
Ic_S2_P4E.1_K4.1_C4.1_H4.1_A4.1_[A6T]_[T7G]_F4.1_[T8C]_[A9T]_T4.1 (ssRNA) RNA: UUUGAUUAAUAUGAUAUCGUUCUUUCUUGUAUUGCUUUCUUUCUCGAUAUCAUAUUAAUCUUU | 536
Ic_S2_P4E.1_K4.1_C4.1_H4.1_A4.1_[A6T]_[T7G]_F4.1_[T8C]_T4.1 (ssRNA) RNA: UUUGAUUAAUAUGAUAUCGUUCUUUCUUGUAUUGCAUUCUUUCUCGAUAUCAUAUUAAUCUUU | 742
Ic_S2_P4E.1_K4.1_C4.1_H4.1_A4.1_[A6T]_[T7G]_F4.1_[A9C]_T4.1 (ssRNA) RNA: UUUGAUUAAUAUGAUAUCGUUCUUUCUUGUAUUGUCUUCUUUCUCGAUAUCAUAUUAAUCUUU | 127
Ic_S2_P4E.1_K4.1_C4.1_H4.1_A4.1_[A6T]_[T7G]_F4.1_[A9T]_T4.1 (ssRNA) RNA: UUUGAUUAAUAUGAUAUCGUUCUUUCUUGUAUUGUUUUCUUUCUCGAUAUCAUAUUAAUCUUU | 57
UCUCUUUGUAUAUCUUCUCUU (ssRNA) [Ib_S1_P4E.1_K4.1_C4.1_H4.1_A4.1_F4.1_[T8C]_[A9T]_T4.1] | 13.4

Binder | Kd [nM]
Ic_S2_P4E.1_K4.1_C4.1_H4.1_A4.1_[A6T]_[T7C]_F4.1_[T8G]_[A9T]_T4.1 (ssRNA) RNA: UUUGAUUAAUAUGAUAUCGUUCUUUCUUGUAUUCGUUUCUUUCUCGAUAUCAUAUUAAUCUUU | 112
Ic_S2_P4E.1_K4.1_C4.1_H4.1_A4.1_[A6T]_[T7C]_F4.1_[T8C]_[A9G]_T4.1 (ssRNA) RNA: UUUGAUUAAUAUGAUAUCGUUCUUUCUUGUAUUCCGUUCUUUCUCGAUAUCAUAUUAAUCUUU | 168
Ic_S2_P4E.1_K4.1_C4.1_H4.1_A4.1_[A6T]_[T7C]_F4.1_[T8C]_[A9C]_T4.1 (ssRNA) RNA: UUUGAUUAAUAUGAUAUCGUUCUUUCUUGUAUUCCCUUCUUUCUCGAUAUCAUAUUAAUCUUU | 162
Ic_S2_P4E.1_K4.1_C4.1_H4.1_A4.1_[A6T]_[T7C]_F4.1_[T8A]_[A9G]_T4.1 (ssRNA) RNA: UUUGAUUAAUAUGAUAUCGUUCUUUCUUGUAUUCAGUUCUUUCUCGAUAUCAUAUUAAUCUUU | 350
Ic_S2_P4E.1_K4.1_C4.1_H4.1_A4.1_[A6T]_[T7C]_F4.1_[T8A]_[A9C]_T4.1 (ssRNA) RNA: UUUGAUUAAUAUGAUAUCGUUCUUUCUUGUAUUCACUUCUUUCUCGAUAUCAUAUUAAUCUUU | 595
Ic_S2_P4E.1_K4.1_C4.1_H4.1_A4.1_[A6T]_[T7C]_F4.1_[T8A]_[A9T]_T4.1 (ssRNA) RNA: UUUGAUUAAUAUGAUAUCGUUCUUUCUUGUAUUCAUUUCUUUCUCGAUAUCAUAUUAAUCUUU | 89.9
Ic_S2_P4E.1_K4.1_C4.1_H4.1_A4.1_[A6T]_[T7C]_F4.1_[T8A]_T4.1 (ssRNA) RNA: UUUGAUUAAUAUGAUAUCGUUCUUUCUUGUAUUCAAUUCUUUCUCGAUAUCAUAUUAAUCUUU | 201
Ic_S2_P4E.1_K4.1_C4.1_H4.1_A4.1_[A6T]_[T7C]_F4.1_[A9C]_T4.1 (ssRNA) RNA: UUUGAUUAAUAUGAUAUCGUUCUUUCUUGUAUUCUCUUCUUUCUCGAUAUCAUAUUAAUCUUU | 12.7
Ic_S2_P4E.1_K4.1_C4.1_H4.1_A4.1_[A6T]_[T7A]_F4.1_[T8G]_[A9C]_T4.1 (ssRNA) RNA: UUUGAUUAAUAUGAUAUCGUUCUUUCUUGUAUUAGCUUCUUUCUCGAUAUCAUAUUAAUCUUU | 685
Ic_S2_P4E.1_K4.1_C4.1_H4.1_A4.1_[A6T]_[T7A]_F4.1_[T8C]_[A9G]_T4.1 (ssRNA) RNA: UUUGAUUAAUAUGAUAUCGUUCUUUCUUGUAUUACGUUCUUUCUCGAUAUCAUAUUAAUCUUU | 93.7
UCUCUUUGUAUAUACUCUCUU (ssRNA) [Ib_S1_P4E.1_K4.1_C4.1_H4.1_A4.1_F4.1_[T8A]_[A9C]_T4.1] | 8.2
Ic_S2_P4E.1_K4.1_C4.1_H4.1_A4.1_[A6T]_[T7A]_F4.1_[T8A]_[A9T]_T4.1 (ssRNA) RNA: UUUGAUUAAUAUGAUAUCGUUCUUUCUUGUAUUAAUUUCUUUCUCGAUAUCAUAUUAAUCUUU | 78.2
Ic_S2_P4E.1_K4.1_C4.1_H4.1_A4.1_[A6T]_[T7A]_F4.1_[A9G]_T4.1 (ssRNA) RNA: UUUGAUUAAUAUGAUAUCGUUCUUUCUUGUAUUAUGUUCUUUCUCGAUAUCAUAUUAAUCUUU | 4.55
Ic_S2_P4E.1_K4.1_C4.1_H4.1_A4.1_[A6T]_F4.1_[T8G]_[A9C]_T4.1 (ssRNA) RNA: UUUGAUUAAUAUGAUAUCGUUCUUUCUUGUAUUUGCUUCUUUCUCGAUAUCAUAUUAAUCUUU | 195
Ic_S2_P4E.1_K4.1_C4.1_H4.1_A4.1_[A6T]_F4.1_[T8C]_[A9C]_T4.1 (ssRNA) RNA: UUUGAUUAAUAUGAUAUCGUUCUUUCUUGUAUUUCCUUCUUUCUCGAUAUCAUAUUAAUCUUU | 52.7
Ic_S2_P4E.1_K4.1_C4.1_H4.1_A4.1_[A6T]_F4.1_[T8C]_[A9T]_T4.1 (ssRNA) RNA: UUUGAUUAAUAUGAUAUCGUUCUUUCUUGUAUUUCUUUCUUUCUCGAUAUCAUAUUAAUCUUU | 21.7
Ic_S2_P4E.1_K4.1_C4.1_H4.1_A4.1_[A6T]_F4.1_[T8A]_[A9C]_T4.1 (ssRNA) RNA: UUUGAUUAAUAUGAUAUCGUUCUUUCUUGUAUUUACUUCUUUCUCGAUAUCAUAUUAAUCUUU | 106
Ic_S2_P4E.1_K4.1_C4.1_H4.1_A4.1_[A6T]_F4.1_[T8A]_[A9T]_T4.1 (ssRNA) RNA: UUUGAUUAAUAUGAUAUCGUUCUUUCUUGUAUUUAUUUCUUUCUCGAUAUCAUAUUAAUCUUU | 9.81
Ic_S2_P4E.1_K4.1_C4.1_H4.1_A4.1_[T7G]_F4.1_[T8C]_[A9C]_T4.1 (ssRNA) RNA: UUUGAUUAAUAUGAUAUCGUUCUUUCUUGUAUAGCCUUCUUUCUCGAUAUCAUAUUAAUCUUU | 53.8
Ic_S2_P4E.1_K4.1_C4.1_H4.1_A4.1_[T7C]_F4.1_[T8G]_[A9C]_T4.1 (ssRNA) RNA: UUUGAUUAAUAUGAUAUCGUUCUUUCUUGUAUACGCUUCUUUCUCGAUAUCAUAUUAAUCUUU | 55.7
Ic_S2_P4E.1_K4.1_C4.1_H4.1_A4.1_[T7C]_F4.1_[T8C]_[A9C]_T4.1 (ssRNA) RNA: UUUGAUUAAUAUGAUAUCGUUCUUUCUUGUAUACCCUUCUUUCUCGAUAUCAUAUUAAUCUUU | 31.3
UCUCUUUGUAUAUAUUCUCUU (ssRNA) [Ic_S1_P4E.1_K4.1_C4.1_H4.1_A4.1_F4.1_[T8A]_[A9T]_T4.1] | 3.56
Ic_S2_P4E.1_K4.1_C4.1_H4.1_A4.1_[T7C]_F4.1_[T8C]_[A9T]_T4.1 (ssRNA) RNA: UUUGAUUAAUAUGAUAUCGUUCUUUCUUGUAUACCUUUCUUUCUCGAUAUCAUAUUAAUCUUU | 15.8
